Results as given in paper PMC3944691, “Crystallization and preliminary X-ray diffraction analysis of the amidase domain of allophanate hydrolase from Pseudomonas sp. strain ADP” (Acta Crystallographica. Section F, Structural Biology …, 2014).

B1: C-terminally truncated AtzF (AtzF467), first 467 amino acids of AtzF, N-terminally histidine-tagged (domain or fragment, Pseudomonas sp. strain ADP)
chain: MNDRAPHPERSGRVTPDHLTDLASYQAAYAAGTDAADVISDLYARIKEDGENPIWISLLPLESALAMLADAQQRKDKGEALPLFGIPFGVKDNIDVAGLPTTAGCTGFARTPRQHAFVVQRLVDAGAIPIGKTNLDQFATGLNGTRTPFGIPRCVFNENYVSGGSSSGSAVAVANGTVPFSLGTDTAGSGRIPAAFNNLVGLKPTKGLFSGSGLVPAARSLDCISVLAHTVDDALAVARVAAGYDADDAFSRKAGAAALTEKSWPRRFNFGVPAAEHRQFFGDAEAEALFNKAVRKLEEMGGTCISFDYTPFRQAAELLYAGPWVAERLAAIESLADEHPEVLHPVVRDIILSAKRMSAVDTFNGIYRLADLVRAAESTWEKIDVMLLPTAPTIYTVEDMLADPVRLNSNLGFYTNFVNLMDLSAIAVPAGFRTNGLPFGVTFIGRAFEDGAIASLGKAFVEHDLAK
notes: Allophanate hydrolase AtzF, Pseudomonas sp. strain ADP, first 467 amino acids (ends at Lys467), amidase domain; also called amidase domain of allophanate hydrolase; source: E. coli BL21 (λDE3), purified (Ni-NTA, Superdex 200 size exclusion); not shown: His6, N-terminal, kept

Key:
[1] = target: Allophanate hydrolase (AtzF) from Pseudomonas sp. strain ADP, His-tagged full-length (Pseudomonas sp. strain ADP); assay: SEC; purified full-length AtzF on Superdex 200 prep-grade, 50 mM HEPES, 100 mM NaCl pH 7.5; oligomeric state from apparent size (~360 kDa)
[2] = target: the molecule itself; assay: SEC; purified AtzF467 on Superdex 200 prep-grade, 50 mM Tris, 100 mM NaCl pH 7.5; oligomeric state from apparent size (~110 kDa); data not shown

Row | Molecule | stoichiometry N [1] | stoichiometry N [2]
1 | Allophanate hydrolase (AtzF) from Pseudomonas sp. strain ADP, His-tagged full-length (enzyme) | 6 | –
2 | B1 | – | 2
